Data published in patent US20040235717A1, “Suppression of androgen receptor transactivation through new pathways to ar and ar coactivators and repressors” (priority 2001, published 2004).
Entries after “also recorded” stand apart in the source; their conditions may differ.

B1: Smad3: a downstream mediator of the TGF-β signaling pathway (protein)
chain: MSSILPFTPPIVKRLLGWKKGEQNGQEEKWCEKAVKSLVKKLKKTGQLDELEKAITTQNVNTKCITIPRSLDGRLQVSHRKGLPHVIYCRLWRWPDLHSHHELRAMELCEFAFNMKKDEVCVNPYHYQRVETPVLPPVLVPRHTEIPAEFPPLDDYSHSIPENTNFPAGIEPQSNIPETPPPGYLSEDGETSDHQMNHSMDAGSPNLSPNPMSPAHNNLDLQPVTYCEPAFWCSISYYELNQRVGETFHASQPSMTVDGFTDPSNSERFCLGLLSNVNRNAAVELTRRHIGRGVRLYYIGGEVFAECLSDSAIFVQSPNCNQRYGWHPATVCKIPPGCNLKIFNNQEFAALLAQSVNQGFEAVYQLTRMCTIRMSFVKGWGAEYRRQTVTSTPCWIELHLNGPLQWLDKVLTQMGSPSIRCSSVS
B2: Smad4: candidate tumor suppressor, shared component of Smad signaling (protein)
chain: MDNMSITNTPTSNDACLSIVHSLMCHRQGGESETFAKRAIESLVKKLKEKKDELDSLITAITTNGAHPSKCVTIQRTLDGRLQVAGRKGFPHVIYARLWRWPDLHKNELKHVKYCQYAFDLKCDSVCVNPYHYERVVSPGIDLSGLTLQSNAPSSMMVKDEYVHDFEGQPSLSTEGHSIQTIQHPPSNRASTETYSTPALLAPSESNATSTANFPNIPVASTSQPASILGGSHSEGLLQIASGPQPGQQQNGFTGQPATYHHNSTTTWTGSRTAPYTPNLPHHQNGHLQHHPPMPPHPGHYWPVHNELAFQPPISNHPAPEYWCSIAYFEMDVQVGETFKVPSSCPIVTVDGYVDPSGGDRFCLGQLSNVHRTEAIERARLHIGKGVQLECKGEGDVWVRCLSDHAVFVQSYYLDREAGRAPGDAVHKIYPSAYIKVFDLRQCHRQMQQQAATAQAAAAAQAAAVAGNIPGPGSVGGIAPAISLSAAAGIGVDDLRRLCILRMSFVKGWGPDYPRQSIKETPCWIEIHLHRALQLLDEVLHTMPIADPQPLD

Key:
[1] = system: wtAR, mtARt877a, PR, VDR, ER transactivation; assay: Steroid receptor transactivation with Smad3 in DU145 cells (wtAR, mtARt877a, PR, VDR, ER); format: cell-based, human
[2] = system: PSA mRNA expression; assay: PSA mRNA expression in LNCaP cells, Northern blot; format: cell-based; conditions: for Effect on androgen-induced PSA mRNA expression: presence of androgen
[3] = system: AR transactivation; assay: AR transactivation with Smad3/Smad4, CAT reporters in PC3-AR2, PC-3 and LNCaP cells; format: cell-based, human; conditions: for Effect on androgen-activated AR transactivation: 10^−8 M DHT
Experimental: 32. […] LNCaP cell were transfected with Smad3 or Smad4 expression vector instead of PC-3(AR)2 cells in experiments otherwise identical with those in A (B), PC-3(AR)2 cells stably transfected with AR were over-expressed with the indicated amounts of Smad3 or Smad4 or SRC-1. 3 μg of MMTV-CAT was used as a reporter plasmid in all experiments. All values represent the averages±SD of four independent experiments. […] PSA expression level was determined by Northern blotting. The probe was obtained from exon 1 of the PSA gene and labeled with [α-^32P] dCTP. A β-actin probe was used as a control for equivalent mRNA loading. (C, Table 1) The RNA samples from (A) were reverse transcribed to cDNAs and all of the samples were subjected to real-time CR using an ABI Prism 7700 Sequence Detection System (Perkin-Elmer Applied bio systems). PCR was performed using the SYBR Green PCR Core Reagents kit (Perkin-Elmer Applied Bio systems). PSA and β-actin forward, reverse primers concentrations were 2.5 μM. To reduce variability between replicates, PCR premixes which contained all reagents except for total RNA were prepared and aliquoted into 1.5 ml microfuge tubes. Specific PCR amplification products were detected by the fluorescent double-stranded DNA-binding dye SYBR Green core reagent kit. Experiments were performed with triplicates for each data point.
(§1) 37. […] (A) PC3-AR2, SW480·C7, and PC-3 cells were transiently co-transfected with either MMTV-CAT, PSA-CAT, 5XARE-CAT, or (TAT)2-CAT (3 μg), in the presence of AR, Smad3, Smad4 or Smad3/Smad4 as indicated. Each CAT activity is presented relative to the transactivation observed in the absence of Smad3. All values represent the mean±SD of three independent experiments.
333. Human prostate cancer DU145 cells and PC-3 cells were maintained in Dulbecco's Minimum Essential Medium containing penicillin (25 U/ml), streptomycin (25 μg/ml), and 5% fetal calf serum. Transfections were performed using the calcium phosphate precipitation method and cells were harvested after 24 h for the chloramphenicol acetyltransferase (CAT) assay, as described previously (Kang, et al. (1999) J. Biol. Chem. 274, 8570-8576). The CAT activity was visualized and quantitated by STORM 840 (Molecular Dynamics). At least three independent experiments were carried out in each case. The SW480·C7 cells and PC-3(AR)2 cells are the gifts from Dr. Eric J. Stanbridge and Dr. T. J. Brown

[4] = system: AR transactivation; assay: AR transactivation reporter assays in SW480.7 / SW480·C7 cells; format: cell-based; conditions: for Effect on ARE reporter activity: SW480·C7 cells
Experimental: as §1

[5] = system: AR transactivation; conditions: PC-3 and CV1 cells; Hayes et al.; cited from earlier work
[6] = target: T1, AR-Smad3 interaction (Homo sapiens, UniProt P10275); assay: GST-Smad3 pull-down of AR with added Smad4; format: binding; conditions: GST-Smad3, [35S]-AR, purified Smad4 added
T1 construct: in vitro transcribed/translated [^35S]-labeled full-length AR and GST-Smad3 (2 μg); made in house; host or cells: AR: TNT-coupled reticulocyte lysate (Promega); GST-Smad3: E. coli BL21 (DE3) pLysS
T1 sequence (P10275 1-920): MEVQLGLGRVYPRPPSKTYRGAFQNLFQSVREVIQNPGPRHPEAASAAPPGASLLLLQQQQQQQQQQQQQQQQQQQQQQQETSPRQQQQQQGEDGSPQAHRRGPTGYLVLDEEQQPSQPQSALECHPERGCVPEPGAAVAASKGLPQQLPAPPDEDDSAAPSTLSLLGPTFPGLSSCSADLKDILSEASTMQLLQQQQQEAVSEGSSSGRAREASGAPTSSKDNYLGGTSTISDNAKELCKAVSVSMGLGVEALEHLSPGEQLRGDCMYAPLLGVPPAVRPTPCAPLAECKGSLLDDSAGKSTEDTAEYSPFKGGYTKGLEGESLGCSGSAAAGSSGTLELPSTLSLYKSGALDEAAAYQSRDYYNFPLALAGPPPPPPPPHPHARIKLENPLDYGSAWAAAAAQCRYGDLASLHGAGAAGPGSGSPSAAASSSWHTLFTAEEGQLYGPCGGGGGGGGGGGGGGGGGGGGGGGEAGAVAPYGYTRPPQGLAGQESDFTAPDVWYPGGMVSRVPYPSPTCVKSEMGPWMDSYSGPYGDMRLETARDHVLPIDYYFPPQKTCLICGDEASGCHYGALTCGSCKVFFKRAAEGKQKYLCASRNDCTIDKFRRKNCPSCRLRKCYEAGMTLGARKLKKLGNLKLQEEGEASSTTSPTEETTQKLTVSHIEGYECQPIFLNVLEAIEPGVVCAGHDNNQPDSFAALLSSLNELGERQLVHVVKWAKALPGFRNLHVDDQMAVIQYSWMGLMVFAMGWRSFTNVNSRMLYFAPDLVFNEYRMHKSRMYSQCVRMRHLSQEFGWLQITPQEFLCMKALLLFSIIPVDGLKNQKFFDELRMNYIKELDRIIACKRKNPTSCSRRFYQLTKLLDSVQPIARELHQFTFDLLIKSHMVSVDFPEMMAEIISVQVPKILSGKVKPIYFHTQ
Experimental: 34. […] Complex bound to GST columns was subjected to SDS-PAGE and autoradiography. […] (C) The indicated amounts of purified Smad4 proteins were added to fixed volumes of in vitro transcribed/translated [^35S]-labeled full-length AR and GST-Smad3 (2 μg) to test for interaction. Bands were detected using a phosphoimager. A representative blot of three independent experiments is shown.
335. Fusion proteins of GST-Smad3 and GST-AR, and GST protein alone were obtained by transforming expressing plasmids into BL21 (DE3) pLysS strain competent cells followed with 1 mM IPTG induction. GST-fusion proteins then were purified by Glutathione-Sepharose™ 4B (Pharmacia). The wtAR and deletion mutant AR (mtAR) proteins labeled with [^35S] were generated in vitro using the TNT-coupled reticulocyte lysate system (Promega). […] The bound proteins were separated on an 8% SDS-polyacrylamide gel and visualized by using autoradiography.

| Molecule | Enhancement of AR transactivation compared to ARA70 [1] | Enhancement of wtAR transactivation ([1]; 10 nM DHT) | Effect on transactivation of steroid receptors ([1]; 10^−8 M cognate ligand) | Effect on PSA expression ([2]; absence of androgen) | Effect on androgen-induced PSA mRNA expression [2] | Effect on androgen-activated AR transactivation ([3]; PC3-AR2, MMTV-CAT) | Effect on ARE reporters (MMTV, PSA, 5X-ARE, TAT2-ARE) ([3]; PC-3 cells) | Effect on ARE reporter activity ([4]; MMTV-ARE reporter) | Effect on ARE reporter activity ([4]; PSA-ARE, 5X-ARE and TAT2-ARE reporters) | Effect on ligand-dependent transactivation of AR ([4]; SW480.7 cells, MMTV-CAT) | Effect on AR transactivation [5] | Effect on Smad3-enhanced AR transactivation ([3]; PC3-AR2, MMTV-CAT) | AR-Smad3 interaction [6] |
| --- | --- | --- | --- | --- | --- | --- | --- | --- | --- | --- | --- | --- | --- |
| B1 | relatively stronger enhancement effect | 3-4 fold | significantly enhance the transactivation of AR, the progesterone receptor, and VDR | failed to induce PSA expression | further enhance PSA expression; also recorded: further enhances DHT-induced PSA mRNA expression | further enhanced | enhance all these reporters | only enhance MMTV-ARE reporter activity | some slight repression | increased the ligand-dependent transactivation of AR | suppress AR transactivation |  |  |
| B2 |  |  |  |  | slight suppression of PSA mRNA expression | slightly suppressed |  |  |  |  |  | significantly repressed | decrease this AR-Smad3 interaction in a dose-dependent manner |
